Among the data in US20030203372A1, “Analysis method” (priority 2000, published 2003) are HIF1α activity measured in Luciferase units from the HRE-Luc reporter, 293T cells in normoxia, co-transfected with CMV-HIF and CMV-SVFL1 (CMV-HIF with HRE-Luc alone: 20953 Luciferase units) (Luciferase units) values, retold here.

This experiment deals with HIF1α (hypoxia-inducible factor 1 alpha) (UniProt Q16665). Briefly: cell-based or functional assay.

Turning to “EGL nine (C.elegans) homolog 3 (EGLN3), full length (from UniProt Q9H6Z9 1-239)”, the HIF1α activity measured in Luciferase units from the HRE-Luc reporter, 293T cells in normoxia, co-transfected with CMV-HIF and CMV-SVFL1 (CMV-HIF with HRE-Luc alone: 20953 Luciferase units) (Luciferase units) came out at 918.
